According to patent US7470669B2, “Isolated polypeptide comprising a leptin fragment” (Serono Genetics Institute, S.A., priority 1999, dated 2008):

Assays:
ob/ob mice = assay: Food intake of ob/ob mice under daily subcutaneous injections; format: in vivo, mouse; conditions: daily subcutaneous injections of 25 μg over a 12 day period
Method: A synthetic peptide with a sequence identical to that of mouse leptin between residues 117-138 was obtained and found to stimulate the oleate-induced binding of ^125I-LDL in primary cultures of rat hepatocytes (FIG. 11B, insert). Daily subcutaneous injections of 25 μg of this synthetic leptin peptide to ob/ob mice had no effect on the food intake over a 12 day period (7.6±0.4 g/day in ob/ob receiving saline and 6.7±0.3 g/day in ob/ob receiving peptide; n=4, NS). Daily injections of 25 μg of mouse leptin caused a reduction of food intake to 4.7±0.5 g/day (n=3; p<0.003 versus controls).

LSR α′ = biological target: T1, LSR α′ (Homo sapiens, UniProt Q86X29); assay: 125I-leptin binding, uptake and degradation in CHO-K1 cells transfected with LSR α′; format: cell-based
T1 construct: The full-length LSR α, α′, and β clones were reconstructed in pTracer-CMV2 vector; expressed in transfected cells; host or cells: CHO-K1 (transient with Fugene)
T1 sequence (Q86X29 1-630 isoform Q86X29-4): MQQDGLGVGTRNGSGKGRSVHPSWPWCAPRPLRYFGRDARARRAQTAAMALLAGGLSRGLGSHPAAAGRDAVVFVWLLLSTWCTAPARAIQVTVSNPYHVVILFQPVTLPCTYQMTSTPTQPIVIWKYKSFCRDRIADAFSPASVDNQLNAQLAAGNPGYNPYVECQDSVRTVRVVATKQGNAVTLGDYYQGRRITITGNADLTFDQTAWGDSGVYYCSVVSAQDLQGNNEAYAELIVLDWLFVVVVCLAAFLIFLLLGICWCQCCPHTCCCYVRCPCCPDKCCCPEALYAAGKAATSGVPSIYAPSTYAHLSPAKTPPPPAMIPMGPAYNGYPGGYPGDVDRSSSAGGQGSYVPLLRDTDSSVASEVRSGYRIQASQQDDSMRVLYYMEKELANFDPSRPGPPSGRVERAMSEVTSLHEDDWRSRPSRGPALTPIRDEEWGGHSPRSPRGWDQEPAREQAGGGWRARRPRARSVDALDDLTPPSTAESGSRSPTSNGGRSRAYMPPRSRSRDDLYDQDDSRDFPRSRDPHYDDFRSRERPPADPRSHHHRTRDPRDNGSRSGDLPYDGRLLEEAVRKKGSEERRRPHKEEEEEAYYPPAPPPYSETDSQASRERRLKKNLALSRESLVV
Method: FIGS. 3A, 3B, 3C, and 3D show the effect of LSR subunit transfection on leptin binding and degradation in CHO-K1 cells. For FIG. 3A, CHO-K1 cells were transfected with increasing concentrations of the α, (□), α′ (▪) or β (◯) LSR plasmid, or vector alone (●) using Fugene transfection reagent. After 48 h, the cells were washed once in PBS and incubated at 37° C. for 2 h with 10 ng/mL of ^125I-leptin in DMEM containing 0.2% (w/v) BSA, 2 mM CaCl2 and 5 mM HEPES, pH 7.4 (Buffer A). The monolayers were washed and lysed with 0.1 N NaOH containing 0.24 mM EDTA, and the lysates were counted. The results are shown as the amount of cell-associated ^125I-leptin. For FIG. 3B, lysates were prepared from CHO-K1 wild type, stable transfectants of vector or LSR α′ subunit, and PLC, and separated on a 10% SDS-polyacrylamide gel under denaturing and reduced conditions. After transfer to nitrocellulose, Western blots were performed using anti-LSR 170 antibody (can also be done with the human equivalent, 93A). Northern blots were done to detect LSR mRNA in CHO-K1 wild-type versus PLC. RT-PCR analysis was also done in CHO-K1 as compared to PLC. For FIGS. 3C and 3D, confluent monolayers of stable-transfected cell lines expressing LSR α′ subunit (▪) or vector alone (●) were washed once in PBS and incubated at 37° C. for 2 h with increasing concentrations of ^125I-leptin in Buffer A. The amount of cell-associated (FIG. 3C) and degraded (FIG. 3D) ^125I-leptin was then measured as described herein. Results are shown as the mean of triplicate determinations.
CHO-K1 cells were plated at a density of 300,000 cells/36 mm dish the day before transfection. After 24 h, plasmid preincubated with Fugene transfection reagent was added to the cells, which were further incubated at 37° C. Cells were used 48 h after transfection as described in the Brief Description of the Figures.
Stable transfectants were prepared from CHO-K1 cells using Superfect according to the manufacturer's instructions. After introduction of the plasmid into the cell with Superfect, the cells were grown in the presence of 750 μg/mL zeocin. After elimination of untransfected cells, the antibiotic concentration was reduced to 500 μg/mL. Clones were isolated using cloning cylinders, and maintained in tissue culture media containing 100 μg/mL zeocin.
To determine which of the LSR subunits is responsible for leptin binding, CHO-K1 cells were transiently transfected with increasing concentrations of each of the 3 human LSR plasmids (FIG. 3A). CHO-K1 cells were selected because they had the lowest level of endogenous LSR expression of the different cell lines tested. This level is far lower than that of a human hepatocyte cell line (PLC) used to systematically characterize human LSR activity (FIG. 3B). […]

Substance	food intake (ob/ob mice)	Kd (LSR α′; CHO-K1 cells stably expressing LSR α′, Lineweaver-Burk transformation, read-out: estimated Kd of leptin binding)	amount of 125I-leptin degraded as share of that bound and internalized by the cells (LSR α′; CHO-K1 cells transfected with LSR α′)	Kd relative to that of the Ob-R (LSR α′; LSR α′ Kd versus Ob-R Kd)	binding of leptin to CHO-K1 cells (LSR α′; transient transfection with LSR α′ plasmid, 10 ng/mL 125I-leptin, 2 h 37° C.)
CSLPQTSGLQKPESLDGVLEAS (listed as Mus musculus) [mouse peptide, mouse leptin fragment residues 117-138, 22-mer]	6.7 ± 0.3 g/day				
leptin: plasma protein of 16 kDa produced by adipocytes; recombinant human or mouse leptin, species depends on the experiment		1.3 nM	16%	~2 fold	increased
